Assays:
[1] = biological target: His-AnaRneN (N-terminal catalytic domain of Anabaena RNase E) (Anabaena PCC 7120); test: ITC
[2] = biological target: AnaRne-GFP (RNase E tagged with GFP at the C-terminus, in situ) (Anabaena PCC 7120) (UniProt Q8YP69); test: FRET or BRET
Sequence of UniProt Q8YP69 (Q8YP69 whole entry): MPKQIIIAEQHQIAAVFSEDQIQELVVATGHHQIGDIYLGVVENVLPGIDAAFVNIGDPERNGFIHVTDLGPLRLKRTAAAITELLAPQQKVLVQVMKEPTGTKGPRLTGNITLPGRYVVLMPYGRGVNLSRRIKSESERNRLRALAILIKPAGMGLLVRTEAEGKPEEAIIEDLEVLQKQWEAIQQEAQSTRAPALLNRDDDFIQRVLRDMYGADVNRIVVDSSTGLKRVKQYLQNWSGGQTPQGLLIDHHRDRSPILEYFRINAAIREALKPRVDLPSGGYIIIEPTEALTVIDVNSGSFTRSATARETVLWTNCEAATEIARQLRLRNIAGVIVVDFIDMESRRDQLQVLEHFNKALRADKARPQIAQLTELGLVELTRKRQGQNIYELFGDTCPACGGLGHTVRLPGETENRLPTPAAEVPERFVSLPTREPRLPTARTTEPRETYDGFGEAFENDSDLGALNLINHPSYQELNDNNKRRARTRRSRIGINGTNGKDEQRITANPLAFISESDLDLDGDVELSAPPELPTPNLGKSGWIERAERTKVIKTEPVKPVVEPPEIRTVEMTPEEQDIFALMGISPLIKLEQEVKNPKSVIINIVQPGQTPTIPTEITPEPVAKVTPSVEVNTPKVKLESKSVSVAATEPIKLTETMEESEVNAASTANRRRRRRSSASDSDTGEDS

Row | Kd [1] [nM] | stoichiometry N [1] | FRET efficiency [2] | Substance
1 | 2770 | 1 | – | Alr1240-Strep (Alr1240 with a C-terminal Strep tag fusion) (enzyme)
2 | – | – | 0.7 | AnaRnb-BFP (RNase II tagged with BFP at the C-terminus, in situ) (enzyme)
